Measured values reported in PMC7954794, “Protein context shapes the specificity of SH3 domain-mediated interactions in vivo” (Nature Communications, 2021).

Test system: growth of yeast strains under 51 stress conditions
Assay: Growth assays in 51 stress conditions (Fig. 1E-F, S2D, S5B)
Assay type: cell-based, Saccharomyces cerevisiae
Design: key to Growth (Fig. S2D) / growth of ABP1 SH3-swapped strains in stress condition: log2 colony size, average of median per strain (growth score)
Conditions: ABP1 SH3-swapped strains
In short: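 Colony sizes at 74 h on 51 stress media (37 °C) were log2 transformed, corrected for plate effects, and averaged across two plates as per-plate medians (growth score). Strains arrayed in 12 replicates with WT border, grown first on YPD for two days at 30 °C.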

B1: MYO5 (protein, UniProt Q04439 1-1219, looked up)
Myosin-5: MAILKRGARKKVHQEPAKRSANIKKATFDSSKKKEVGVSDLTLLSKISDEAINENLKKRFLNATIYTYIGHVLISVNPFRDLGIYTDAVMNEYKGKNRLEVPPHVFAIAESMYYNMKSYNENQCVIISGESGAGKTEAAKRIMQYIAAASSTHTESIGKIKDMVLATNPLLESFGCAKTLRNNNSSRHGKYLEIKFNNQFEPCAGNITNYLLEKQRVVSQIKNERNFHIFYQFTKGASDAYRQTFGVQKPEQYVYTAAAGCISAETIDDLQDYQETLKAMRVIGLGQEEQDQIFRMLAAILWIGNVSFIENEEGNAQVRDTSVTDFVAYLLQIDSQLLIKSLVERIMETNHGMKRGSVYHVPLNIVQADAVRDALAKAIYNNLFDWIVSRVNKSLQAFPGAEKSIGILDIYGFEIFEHNSFEQICINYVNEKLQQIFIQLTLKSEQETYEREKIQWTPIKYFDNKVVCDLIEARRPPGIFAAMNDSVATAHADSNAADQAFAQRLNLFTTNPHFDLRSNKFVIKHYAGDVTYDIDGITDKNKDQLQKDLVELIGTTTNTFLATIFPDTVDRESKRRPPTAGDKIIKSANDLVETLSKAQPSYIRTIKPNETKSPNDYDDRQVLHQIKYLGLQENVRIRRAGFAYRQVFEKFVERFYLLSPHCSYAGDYTWQGDTLDAVKYILQDSSIPQQEYQLGVTSVFIKTPETLFALEHMRDRYWHNMAARIQRAWRRFLQRRIDAATKIQRTIRERKEGNKYEKLRDYGTKVLGGRKERRSMSLLGYRAFMGDYLSCNESKSKGAYIKRQVSIKEKVIFSIHGEALHTKFGRSAQRLKKTFLLTPTTLYIVGQTLVQNAMTYTQDYKIDVRNIQAVSLTNLQDDWVAIKLASSGQPDPLINTYFKTELITHLKRLNDKIQIKIGSAIEYQKKPGKLHSVKCQINESAPKYGDIYKSSTISVRRGNPPNSQVHKKPRKKSSISSGYHASSSQATRRPVSIAAAQHVPTAPASRHSKKPAPPPPGMQNKAATRRSVPNPASTLTASQSNARPSPPTAATRATPAATPAAAAMGSGRQANIPPPPPPPPPSSKPKEPMFEAAYDFPGSGSPSELPLKKGDVIYITREEPSGWSLGKLLDGSKEGWVPTAYMKPHSGNNNIPTPPQNRDVPKPVLNSVQHDNTSANVIPAAAQASLGDGLANALAARANKMRLESDDEEANEDEEEDDW
- Growth (Fig. S2D) (Bathophenanthroline.0.1uM): 10.7807
- Growth (Fig. S2D) (Bathophenanthroline.10uM): 10.5943
- Growth (Fig. S2D) (Bathophenanthroline.1uM): 10.7288
- Growth (Fig. S2D) (CaCl2.100mM): 10.8763
- Growth (Fig. S2D) (CaCl2.250mM): 10.7748
- Growth (Fig. S2D) (CaCl2.500mM): 10.1951
- Growth (Fig. S2D) (Caffein.10mM): 10.0771
- Growth (Fig. S2D) (Caffein.2mM): 10.9616
- Growth (Fig. S2D) (CdCl2.100uM): 9.383
- Growth (Fig. S2D) (CdCl2.10uM): 10.8746
- Growth (Fig. S2D) (CdCl2.50uM): 9.758
- Growth (Fig. S2D) (CuSO4.1mM): 10.0515
- Growth (Fig. S2D) (CuSO4.5mM): 7.47
- Growth (Fig. S2D) (Cycloheximide.0.05.uM): 11.0185
- Growth (Fig. S2D) (Cycloheximide.0.2.uM): 10.5753
- Growth (Fig. S2D) (Cycloheximide.0.5.uM): 10.0157
- Growth (Fig. S2D) (DMSO.2.): 11.0566
- Growth (Fig. S2D) (DMSO.6.): 9.912
- Growth (Fig. S2D) (DMSO.8.): 9.351
- Growth (Fig. S2D) (Ethanol.2.): 10.6973
- Growth (Fig. S2D) (Ethanol.6.): 10.1096
- Growth (Fig. S2D) (Ethanol.8.): 9.896
- Growth (Fig. S2D) (Galactose.2.): 10.7371
- Growth (Fig. S2D) (Glycerol.2.): 8.938
- Growth (Fig. S2D) (Hydroxyurea.25mM): 10.701
- Growth (Fig. S2D) (Hygromycin.190uM): 10.9824
- Growth (Fig. S2D) (Hygromycin.19uM): 10.9737
- Growth (Fig. S2D) (Hygromycin.95uM): 11.0723
- Growth (Fig. S2D) (MMS.0.004.): 10.9048
- Growth (Fig. S2D) (MMS.0.02.): 10.5139
- Growth (Fig. S2D) (MMS.0.04.): 9.517
- Growth (Fig. S2D) (Menadione.100uM): 10.5627
- Growth (Fig. S2D) (Menadione.200uM): 10.4133
- Growth (Fig. S2D) (Menadione.50uM): 10.7993
- Growth (Fig. S2D) (NaCl.0.25M): 10.7283
- Growth (Fig. S2D) (NaCl.1M): 9.177
- Growth (Fig. S2D) (Nitroquinoline.10uM): 10.6793
- Growth (Fig. S2D) (Nitroquinoline.50uM): 10.4598
- Growth (Fig. S2D) (Nystatin.0.01uM): 11.0134
- Growth (Fig. S2D) (Nystatin.0.1uM): 10.9398
- Growth (Fig. S2D) (Raffinose.2.): 10.9979
- Growth (Fig. S2D) (Rapamycin.10nM): 9.833
- Growth (Fig. S2D) (Rapamycin.50nM): 9.517
- Growth (Fig. S2D) (SC.pH3): 10.3672
- Growth (Fig. S2D) (SC.pH6): 10.9549
- Growth (Fig. S2D) (SDS.0.01.): 10.9651
- Growth (Fig. S2D) (SDS.0.02.): 10.9575
- Growth (Fig. S2D) (SDS.0.05.): 10.8115
- Growth (Fig. S2D) (Sorbitol.10mM): 10.9933
- Growth (Fig. S2D) (Sorbitol.1mM): 11.0521
- Growth (Fig. S2D) (Sorbitol.5mM): 10.9248

B2: MYO3 (protein, UniProt P36006 1-1272, looked up)
Myosin-3: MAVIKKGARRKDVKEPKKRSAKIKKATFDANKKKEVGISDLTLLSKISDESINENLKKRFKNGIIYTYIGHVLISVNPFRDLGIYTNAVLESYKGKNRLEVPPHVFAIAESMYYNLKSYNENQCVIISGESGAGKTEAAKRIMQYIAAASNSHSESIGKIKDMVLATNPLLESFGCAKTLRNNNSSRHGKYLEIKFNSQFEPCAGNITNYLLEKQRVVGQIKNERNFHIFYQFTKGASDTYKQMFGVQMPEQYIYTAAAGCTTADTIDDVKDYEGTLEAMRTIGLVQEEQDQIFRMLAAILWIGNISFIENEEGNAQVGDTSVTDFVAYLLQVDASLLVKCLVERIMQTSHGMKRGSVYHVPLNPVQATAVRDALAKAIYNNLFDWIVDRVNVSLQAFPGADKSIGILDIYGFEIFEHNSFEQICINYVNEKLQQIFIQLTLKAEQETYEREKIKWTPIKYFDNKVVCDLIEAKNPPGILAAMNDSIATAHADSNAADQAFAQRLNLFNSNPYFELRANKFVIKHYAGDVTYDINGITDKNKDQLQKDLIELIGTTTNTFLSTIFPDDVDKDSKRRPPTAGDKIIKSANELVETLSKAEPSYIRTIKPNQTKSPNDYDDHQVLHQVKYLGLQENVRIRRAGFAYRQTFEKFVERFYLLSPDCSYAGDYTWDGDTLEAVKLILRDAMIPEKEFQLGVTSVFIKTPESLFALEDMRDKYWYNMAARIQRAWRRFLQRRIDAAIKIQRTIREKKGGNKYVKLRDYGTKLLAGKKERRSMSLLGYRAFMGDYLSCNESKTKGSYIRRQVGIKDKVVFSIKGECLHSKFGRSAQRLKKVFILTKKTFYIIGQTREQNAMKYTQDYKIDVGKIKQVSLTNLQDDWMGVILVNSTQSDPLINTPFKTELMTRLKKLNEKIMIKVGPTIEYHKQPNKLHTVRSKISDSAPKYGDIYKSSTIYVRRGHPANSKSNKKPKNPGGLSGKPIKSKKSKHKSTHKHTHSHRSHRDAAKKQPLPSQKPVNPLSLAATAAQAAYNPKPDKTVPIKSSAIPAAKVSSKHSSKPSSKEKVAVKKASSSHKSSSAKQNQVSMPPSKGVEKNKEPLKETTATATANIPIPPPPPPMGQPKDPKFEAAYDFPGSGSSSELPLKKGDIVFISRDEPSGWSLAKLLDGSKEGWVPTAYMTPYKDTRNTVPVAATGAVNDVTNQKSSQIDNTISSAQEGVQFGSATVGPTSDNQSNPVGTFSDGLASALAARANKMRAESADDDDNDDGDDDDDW
- Growth (Fig. S2D) (Bathophenanthroline.0.1uM): 10.752
- Growth (Fig. S2D) (Bathophenanthroline.10uM): 10.5714
- Growth (Fig. S2D) (Bathophenanthroline.1uM): 10.7108
- Growth (Fig. S2D) (CaCl2.250mM): 10.7527
- Growth (Fig. S2D) (CaCl2.500mM): 10.1691
- Growth (Fig. S2D) (Caffein.10mM): 9.976
- Growth (Fig. S2D) (Caffein.2mM): 10.8692
- Growth (Fig. S2D) (CdCl2.100uM): 9.202
- Growth (Fig. S2D) (CdCl2.10uM): 10.8049
- Growth (Fig. S2D) (CdCl2.50uM): 9.536
- Growth (Fig. S2D) (CuSO4.1mM): 10.0301
- Growth (Fig. S2D) (CuSO4.5mM): 7.358
- Growth (Fig. S2D) (Cycloheximide.0.05.uM): 11.0001
- Growth (Fig. S2D) (Cycloheximide.0.2.uM): 10.4991
- Growth (Fig. S2D) (Cycloheximide.0.5.uM): 9.9209
- Growth (Fig. S2D) (DMSO.2.): 10.998
- Growth (Fig. S2D) (DMSO.6.): 9.853
- Growth (Fig. S2D) (DMSO.8.): 9.243
- Growth (Fig. S2D) (Ethanol.2.): 10.6338
- Growth (Fig. S2D) (Ethanol.6.): 10.0843
- Growth (Fig. S2D) (Ethanol.8.): 9.865
- Growth (Fig. S2D) (Galactose.2.): 10.6373
- Growth (Fig. S2D) (Glycerol.2.): 8.89
- Growth (Fig. S2D) (Hydroxyurea.25mM): 10.6592
- Growth (Fig. S2D) (Hygromycin.190uM): 10.9229
- Growth (Fig. S2D) (Hygromycin.19uM): 10.8956
- Growth (Fig. S2D) (Hygromycin.95uM): 10.9112
- Growth (Fig. S2D) (MMS.0.004.): 10.8802
- Growth (Fig. S2D) (MMS.0.02.): 10.4477
- Growth (Fig. S2D) (MMS.0.04.): 9.333
- Growth (Fig. S2D) (Menadione.100uM): 10.5316
- Growth (Fig. S2D) (Menadione.200uM): 10.3415
- Growth (Fig. S2D) (Menadione.50uM): 10.7191
- Growth (Fig. S2D) (NaCl.0.25M): 10.6458
- Growth (Fig. S2D) (NaCl.1M): 9.0624
- Growth (Fig. S2D) (Nitroquinoline.10uM): 10.5815
- Growth (Fig. S2D) (Nitroquinoline.50uM): 10.5108
- Growth (Fig. S2D) (Nystatin.0.01uM): 10.9576
- Growth (Fig. S2D) (Nystatin.0.1uM): 10.9795
- Growth (Fig. S2D) (Raffinose.2.): 10.915
- Growth (Fig. S2D) (Rapamycin.10nM): 9.682
- Growth (Fig. S2D) (Rapamycin.50nM): 9.448
- Growth (Fig. S2D) (SC.pH3): 10.2912
- Growth (Fig. S2D) (SC.pH6): 10.9261
- Growth (Fig. S2D) (SDS.0.01.): 10.9246
- Growth (Fig. S2D) (SDS.0.02.): 10.9437
- Growth (Fig. S2D) (SDS.0.05.): 10.7731
- Growth (Fig. S2D) (Sorbitol.10mM): 10.9112
- Growth (Fig. S2D) (Sorbitol.1mM): 11.0073
- Growth (Fig. S2D) (Sorbitol.5mM): 10.8833
